Test [1] has as its target T1, human GLP-1 receptor (Homo sapiens, UniProt P43220).
For test [2], the target named is Human Serum Albumin (human) (UniProt P02768). The test can be described thus: shift of the GLP-1 receptor IC50 (SPA displacement of ^125I-GLP-1) between 2.0% and 0.005% HSA, which the filing takes as an indication of albumin binding.
The target of test [3] is T1, human GLP-1 receptor. Kind of test: SPA displacement of [^125I]-GLP-1(7-36)NH2 from BHK membranes with the human GLP-1 receptor, 2.0% HSA (high albumin).
The target in test [4] is T1, human GLP-1 receptor. Kind of test: SPA displacement of [^125I]-GLP-1(7-36)NH2 from BHK membranes with the human GLP-1 receptor, 0.005% HSA (low albumin).

Bounds are passed on as bounds.

The values below come from patent US20120329711A1, “GLP-1 RECEPTOR AGONIST COMPOUNDS WITH A MODIFIED N-TERMINUS” (Nordisk A/S, priority 2009, published 2012).

In the test with human GLP-1 receptor [1], “N^3-{2-[2-(1H-Imidazol-4-yl)-methylcarbamoyl]-2-methyl-propionyl}-[2-(2-{2-[2-(2-{2-[(S)-4-Carboxy-4-(17-carboxyheptadecanoylamino)-butyrylamino]ethoxy}ethoxy)-acetylamino]ethoxy}-ethoxy)acetyl][Arg^17,Arg^20,Arg^33,Lys^38]GLP-1A(3-37)-peptide” showed an EC50 of cAMP formation (AlphaScreen cAMP assay) of less than 2100 pM.
“N^9-[2,2-dimethyl-3-oxo-3-(pyridin-2-ylmethylamino)propanoyl], N^ε26-[2-[2-[2-[[2-[2-[2-[[(4S)-4-carboxy-4-[10-(4-carboxyphenoxy)decanoylamino]butanoyl]amino]ethoxy]ethoxy]acetyl]amino]ethoxy]ethoxy]acetyl], N^ε37-[2-[2-[2-[[2-[2-[2-[[(4S)-4-carboxy-4-[10-(4-carboxyphenoxy)decanoylamino]butanoyl]amino]ethoxy]ethoxy]acetyl]amino]ethoxy]ethoxy]acetyl]-[Arg^34,Lys^3]-GLP-1-(9-37)-peptide”: the ratio [(IC50/nM) high HSA]/[(IC50/nM) low HSA] in test [2] was greater than 10. In addition, the figures for the half-inhibitory concentration (IC50) in the test with human GLP-1 receptor [3] and in the test with human GLP-1 receptor [4] were less than 900 nM and less than 40 nM, respectively. The same substance displayed an EC50 of cAMP formation (AlphaScreen cAMP assay) with human GLP-1 receptor [1] of less than 2100 pM.
On the same counts, the results for “N^9-[-{2-[2-(1H-Imidazol-4-yl)-ethylcarbamoyl]-2-methyl-propionyl}-N^ε18-[2-(2-[2-(2-[2-(2-((S)-3-[1-(19-Carboxy-nonadecanoyl)-piperidine-4-carboxyamino]-3-carboxypropionylamino)ethoxy)ethoxy]acetylamino)ethoxy]ethoxy)acetyl][Lys^18,Glu^22, Gln^34]GLP-1(9-37)-peptide” are greater than 10, less than 900 nM, less than 40 nM and less than 2100 pM.
In the same order, the values of “N^9-{2-[2-(1H-Imidazol-4-yl)-ethylcarbamoyl]-2-methyl-propionyl}-N^ε26-[2-(2-{2-[2-(2-{2-[(S)-4-Carboxy-4-(17-carboxyheptadecanoylamino)butyrylamino]ethoxy}ethoxy)acetylamino]ethoxy}ethoxy)acetyl][His^31,Gln^34]GLP-1(9-37)-peptide” are greater than 10, less than 900 nM, less than 40 nM and less than 2100 pM.
In the case of “N^9-{2-[2-(1H-Imidazol-4-yl)-ethylcarbamoyl]-2-methyl-propionyl}-N^ε26-{2-[2-(2-{2-[2-(2-{(S)-4-Carboxy-4-[10-(4-carboxy-phenoxy)-decanoylamino]-butyrylamino}-ethoxy)-ethoxy]-acetylamino}-ethoxy)-ethoxy]-acetyl}, N^ε37-{2-[2-(2-{2-[2-(2-{(S)-4-Carboxy-4-[10-(4-carboxy-phenoxy)-decanoylamino]-butyrylamino}-ethoxy)-ethoxy]-acetylamino}-ethoxy)-ethoxy]-acetyl}[Arg^34,Lys^37]GLP-1(9-37)-peptide”, in test [2], the ratio [(IC50/nM) high HSA]/[(IC50/nM) low HSA] was greater than 10. In addition, the IC50 in the test with human GLP-1 receptor [3] was less than 900 nM; with human GLP-1 receptor [4], less than 40 nM. In addition, the EC50 of cAMP formation (AlphaScreen cAMP assay) in the test with human GLP-1 receptor [1] is less than 2100 pM.
On the same counts, the results for “N^9-{2-[2-(1H-Imidazol-4-yl)-ethylcarbamoyl]-2-methyl-propionyl}-N^ε26-{2-[2-(2-{2-[2-(2-{(S)-4-[4-(4-tert-Butyl-phenyl)-butyrylamino]-4-carboxy-butyrylamino}-ethoxy)-ethoxy]-acetylamino}-ethoxy)-ethoxy]-acetyl}, N^ε37-{2-[2-(2-{2-[2-(2-{(S)-4-[4-(4-tert-Butyl-phenyl)-butyrylamino]-4-carboxy-butyrylamino}-ethoxy)-ethoxy]-acetylamino}-ethoxy)-ethoxy]-acetyl}[Arg^34, Lys^37]GLP-1(9-37)-peptide” are greater than 10, less than 900 nM, less than 40 nM and less than 2100 pM.
